From US20040265295A1 (WISCONSIN ALUMNI RESEARCH FOUNDATION, published 2004)

Target: T1, talin (Homo sapiens (Human), UniProt Q9Y490 1-2541)
T1 construct: Endogenous talin of HEK293T (and other) cells, detected with anti-talin antibody; also called talin (endogenous, in cell lysates)
Assay: immunoprecipitation of talin from HEK293T cells overexpressing the kinase

T1 sequence (Q9Y490 other isoform, or with tags, fused parts or gaps limits assumed): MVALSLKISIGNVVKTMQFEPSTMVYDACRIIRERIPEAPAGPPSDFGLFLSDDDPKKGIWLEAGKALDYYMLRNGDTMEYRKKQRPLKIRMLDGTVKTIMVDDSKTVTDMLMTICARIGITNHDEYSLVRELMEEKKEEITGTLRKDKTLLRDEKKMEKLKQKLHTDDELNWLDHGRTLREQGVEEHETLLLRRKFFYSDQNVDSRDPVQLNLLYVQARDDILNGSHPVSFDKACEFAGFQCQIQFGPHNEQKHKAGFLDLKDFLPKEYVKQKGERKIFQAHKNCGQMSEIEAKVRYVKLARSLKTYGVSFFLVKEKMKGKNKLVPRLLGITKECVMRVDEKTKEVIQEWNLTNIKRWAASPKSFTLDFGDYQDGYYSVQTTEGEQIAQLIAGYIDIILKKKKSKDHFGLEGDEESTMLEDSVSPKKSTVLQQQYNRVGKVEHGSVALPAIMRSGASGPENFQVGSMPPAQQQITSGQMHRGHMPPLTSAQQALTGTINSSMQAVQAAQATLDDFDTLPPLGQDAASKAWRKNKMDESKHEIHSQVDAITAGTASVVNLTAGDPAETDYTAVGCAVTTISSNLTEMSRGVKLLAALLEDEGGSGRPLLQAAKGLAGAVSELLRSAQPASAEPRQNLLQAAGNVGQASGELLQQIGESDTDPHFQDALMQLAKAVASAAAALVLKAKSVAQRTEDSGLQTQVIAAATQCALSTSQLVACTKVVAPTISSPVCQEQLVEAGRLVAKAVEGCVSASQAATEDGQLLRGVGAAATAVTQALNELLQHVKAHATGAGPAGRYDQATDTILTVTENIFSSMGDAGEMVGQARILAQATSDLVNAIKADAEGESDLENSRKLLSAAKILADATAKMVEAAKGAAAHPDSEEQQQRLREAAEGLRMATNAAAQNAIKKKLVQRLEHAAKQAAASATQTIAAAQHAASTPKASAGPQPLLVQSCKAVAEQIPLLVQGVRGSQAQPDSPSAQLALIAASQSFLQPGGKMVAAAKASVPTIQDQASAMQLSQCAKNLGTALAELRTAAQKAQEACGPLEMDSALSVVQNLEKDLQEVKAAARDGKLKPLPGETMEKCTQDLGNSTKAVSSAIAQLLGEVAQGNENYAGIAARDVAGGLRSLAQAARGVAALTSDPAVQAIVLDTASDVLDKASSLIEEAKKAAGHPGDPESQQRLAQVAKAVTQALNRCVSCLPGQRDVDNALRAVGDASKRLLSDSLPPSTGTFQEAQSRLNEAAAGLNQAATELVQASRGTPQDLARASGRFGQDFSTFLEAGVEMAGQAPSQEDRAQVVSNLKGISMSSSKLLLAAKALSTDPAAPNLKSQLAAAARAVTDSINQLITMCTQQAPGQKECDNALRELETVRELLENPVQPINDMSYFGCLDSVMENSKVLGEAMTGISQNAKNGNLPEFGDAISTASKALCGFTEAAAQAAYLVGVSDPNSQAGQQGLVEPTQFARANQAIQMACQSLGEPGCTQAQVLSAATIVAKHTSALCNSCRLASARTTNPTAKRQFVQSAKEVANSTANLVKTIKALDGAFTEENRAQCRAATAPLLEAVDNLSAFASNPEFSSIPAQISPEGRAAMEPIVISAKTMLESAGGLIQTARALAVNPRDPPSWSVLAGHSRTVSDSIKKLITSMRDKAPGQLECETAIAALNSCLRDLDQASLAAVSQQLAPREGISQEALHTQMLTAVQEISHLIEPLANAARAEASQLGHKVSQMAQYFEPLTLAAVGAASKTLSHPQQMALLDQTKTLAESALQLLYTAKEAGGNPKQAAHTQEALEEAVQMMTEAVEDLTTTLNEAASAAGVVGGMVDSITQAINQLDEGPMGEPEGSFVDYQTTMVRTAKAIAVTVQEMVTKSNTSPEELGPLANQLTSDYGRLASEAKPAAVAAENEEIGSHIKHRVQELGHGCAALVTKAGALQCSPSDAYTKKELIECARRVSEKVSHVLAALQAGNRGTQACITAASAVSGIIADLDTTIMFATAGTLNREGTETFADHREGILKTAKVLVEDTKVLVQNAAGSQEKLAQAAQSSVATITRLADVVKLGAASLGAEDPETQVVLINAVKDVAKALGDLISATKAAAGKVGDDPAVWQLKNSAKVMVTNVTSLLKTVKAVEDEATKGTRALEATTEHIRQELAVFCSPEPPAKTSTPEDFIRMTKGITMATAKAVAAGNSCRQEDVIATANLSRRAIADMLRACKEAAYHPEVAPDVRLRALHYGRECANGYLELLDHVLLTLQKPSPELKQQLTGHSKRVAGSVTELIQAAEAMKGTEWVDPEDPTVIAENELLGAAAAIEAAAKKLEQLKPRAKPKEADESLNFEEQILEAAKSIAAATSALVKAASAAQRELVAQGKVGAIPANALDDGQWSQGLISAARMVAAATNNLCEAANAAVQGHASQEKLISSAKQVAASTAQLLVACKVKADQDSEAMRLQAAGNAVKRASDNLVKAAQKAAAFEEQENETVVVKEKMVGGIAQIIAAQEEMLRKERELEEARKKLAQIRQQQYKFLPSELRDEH

B1: Haemagglutinin (HA)-tagged PIPKIγ635 (enzyme, not shown: small tags and cut ends)
chain: MELEVPDEAESAEAGAVTAEAAWSAESGAAAGMTQKKAGLAEAPLVTGQPGPGHGKKLGHRGVDASGETTYKKTTSSTLKGAIQLGIGYTVGNLSSKPERDVLMQDFYVMESIFFPSEGSNFTPAHHFQDFRFKTYAPVAFRYFRELFGIRPDDYLYSLCNEPLIELSNPGASGSVFYVTSDDEFIIKTVMHKEAEFLQKLLPGYYMNLNQNPRTLLPKFYGLYCVQSGGKNIRVVVMNNVLPRVVKMHLKFDLKGSTYKRRASKKEKEKSLPTYKDLDFMQDMPEGLLLDSDTFGALVKTLQRDCLVLESFKIMDYSLLLGVHNIDQQERERQAEGAQSKADEKRPVAQKALYSTAMESIQGGAARGEAIETDDTMGGIPAVNGRGERLLLHIGIIDILQSYRFIKKLEHTWKALVHDGDTVSVHRPSFYAERFFKFMSSTVFRKSSSLKSSPSKKGRGALLAVKPLGPTAAFSASQIPSEREDVQYDLRGARSYPTLEDEGRPDLLPCTPPSFEEATTASIATTLSSTSLSIPERSPSDTSEQPRYRRRTQSSGQDGRPQEEPHAEDLQKITVQVEPVCGVGVVPKEEGAGVEVPPCGASAAASVEIDAASQASEPASQASDEEDAPSTDIYF
  binding result: no binding
